Reference: patent US20250163127A1
Several values for one entry are separate records, joined by “and”; a condition that tells them apart may be missing. Identical values can stand only once.

Experiments:
PD-L1 (human) = experiment: flow cytometry, CHO cells expressing PD-L1
TIGIT (human) = biological target: T1, TIGIT (human) (UniProt Q495A1); experiment: flow cytometry, transfected HEK293 cells
T1 sequence: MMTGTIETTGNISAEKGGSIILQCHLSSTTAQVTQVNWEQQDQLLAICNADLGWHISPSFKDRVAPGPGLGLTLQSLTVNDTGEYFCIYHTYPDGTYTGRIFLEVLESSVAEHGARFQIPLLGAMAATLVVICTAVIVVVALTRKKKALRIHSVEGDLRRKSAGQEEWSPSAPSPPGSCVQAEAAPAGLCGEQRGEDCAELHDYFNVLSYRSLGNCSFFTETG

CD226 (human) = biological target: T2, CD226 (human) (UniProt Q15762); experiment: flow cytometry, transfected HEK293 cells
T2 sequence: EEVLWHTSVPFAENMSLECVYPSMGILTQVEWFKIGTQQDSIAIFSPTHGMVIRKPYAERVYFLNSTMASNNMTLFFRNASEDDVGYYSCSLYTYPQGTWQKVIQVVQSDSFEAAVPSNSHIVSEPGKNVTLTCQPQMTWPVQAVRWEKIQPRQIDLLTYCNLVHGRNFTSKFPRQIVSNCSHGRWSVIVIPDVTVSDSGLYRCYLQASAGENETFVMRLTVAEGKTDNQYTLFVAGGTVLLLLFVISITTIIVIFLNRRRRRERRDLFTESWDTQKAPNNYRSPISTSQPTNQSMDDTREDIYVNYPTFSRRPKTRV

CD96 (human) = biological target: T3, CD96 (human) (UniProt P40200); experiment: flow cytometry, transfected HEK293 cells
T3 sequence: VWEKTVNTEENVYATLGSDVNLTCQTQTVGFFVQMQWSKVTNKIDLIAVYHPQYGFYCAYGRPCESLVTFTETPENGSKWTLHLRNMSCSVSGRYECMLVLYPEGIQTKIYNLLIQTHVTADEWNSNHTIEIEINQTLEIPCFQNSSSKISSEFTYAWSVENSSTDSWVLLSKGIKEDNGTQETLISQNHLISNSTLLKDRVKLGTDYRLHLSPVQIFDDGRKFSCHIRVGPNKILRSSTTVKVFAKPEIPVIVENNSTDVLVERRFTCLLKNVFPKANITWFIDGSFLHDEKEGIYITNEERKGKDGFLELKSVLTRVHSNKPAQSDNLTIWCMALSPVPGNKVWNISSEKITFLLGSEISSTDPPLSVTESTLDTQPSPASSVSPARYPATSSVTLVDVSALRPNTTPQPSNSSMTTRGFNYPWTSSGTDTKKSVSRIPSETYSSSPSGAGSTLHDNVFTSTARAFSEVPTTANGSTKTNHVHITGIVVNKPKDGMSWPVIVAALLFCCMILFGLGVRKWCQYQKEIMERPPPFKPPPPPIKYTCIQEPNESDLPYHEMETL

CD112R (human) = CD112R (human) (UniProt Q6DKI7); experiment: flow cytometry, transfected HEK293 cells
Chain of CD112R (human) (Q6DKI7 whole entry): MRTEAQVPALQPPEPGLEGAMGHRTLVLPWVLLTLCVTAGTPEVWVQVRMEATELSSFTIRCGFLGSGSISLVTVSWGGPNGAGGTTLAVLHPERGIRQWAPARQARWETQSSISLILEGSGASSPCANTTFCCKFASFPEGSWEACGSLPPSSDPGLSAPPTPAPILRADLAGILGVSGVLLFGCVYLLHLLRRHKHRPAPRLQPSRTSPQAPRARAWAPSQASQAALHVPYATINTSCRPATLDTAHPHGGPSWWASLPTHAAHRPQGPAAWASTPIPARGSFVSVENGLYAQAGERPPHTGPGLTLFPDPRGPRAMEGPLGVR

Chain of wild-type CD155 IgV-Fc (Fc fusion) (chain): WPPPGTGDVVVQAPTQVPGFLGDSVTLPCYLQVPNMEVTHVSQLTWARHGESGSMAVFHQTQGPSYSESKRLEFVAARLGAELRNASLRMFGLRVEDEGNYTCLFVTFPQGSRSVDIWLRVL
Chain of PD-L1 (human) (chain, as listed by the source): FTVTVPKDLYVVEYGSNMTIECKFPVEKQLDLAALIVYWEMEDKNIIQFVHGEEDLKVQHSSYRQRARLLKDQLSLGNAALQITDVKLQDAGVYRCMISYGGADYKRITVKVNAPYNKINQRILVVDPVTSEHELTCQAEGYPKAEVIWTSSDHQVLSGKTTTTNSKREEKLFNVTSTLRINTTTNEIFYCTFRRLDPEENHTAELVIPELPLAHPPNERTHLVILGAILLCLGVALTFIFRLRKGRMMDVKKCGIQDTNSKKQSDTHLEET

| Substance | MFI at 100 nM (TIGIT (human)) | MFI at 100 nM (CD226 (human)) | MFI at 100 nM (CD96 (human)) | MFI at 100 nM (CD112R (human)) | other results |
| --- | --- | --- | --- | --- | --- |
| variant CD80 E35D/D46E/M47V/A71D (Fc fusion) | – | – | – | – | MFI at 33.3 nM (PD-L1 (human)): 549 MFI |
| variant CD155 IgV-Fc, P18S, V41A, S42G, T45G, L104N (Fc fusion) | 3820 | – | – | – | – |
| variant CD155 IgV-Fc, S52M, V57L (Fc fusion) | – | 2430 | 1860 | – | – |
| variant CD155 IgV-Fc, S42V, S52E (Fc fusion) | – | 2270 | 2530 | 1810 | – |
| variant CD155 IgV-Fc, S42C (Fc fusion) | – | 2100 | 1590 | 1680 | – |
| variant CD155 IgV-Fc, A13R, D23Y, E37P, S42P, Q62Y, A81E (Fc fusion) | 4160 | – | – | – | – |
| wild-type CD155 IgV-Fc (Fc fusion) | 1960 and 2180 and 4690 | 2320 and 2370 and 4690 | 1890 and 1680 and 3270 | 2170 and 1740 and 2940 | fold increase to WT ECD (CD112R (human)): 1.22 fold and 0.98 fold and 1.65 fold; fold increase to WT ECD (TIGIT (human)): 0 fold; fold increase to WT ECD (CD96 (human)): 0.02 fold |
| variant CD155 IgV-Fc, S52E (Fc fusion) | 2660 | 2600 | 1800 | – | – |
| variant CD155 IgV-Fc, S42W, S52R, Q62Y, L104Q (Fc fusion) | – | 2300 | 1760 | 1820 | – |
| variant CD155 IgV-Fc, S42G, S52Q, L104E, G111R (Fc fusion) | – | 2020 | – | – | – |
| variant CD155 IgV-Fc, T45Q, S52L, L104E, G111R (Fc fusion) | 2290 | 2390 | 1580 | – | – |
| variant CD155 IgV-Fc, S52M, L104Q (Fc fusion) | 2670 | 2250 | 1630 | – | – |
| variant CD155 IgV-Fc, S42W, S52Q, V57L, Q62Y (Fc fusion) | – | 2140 | 1700 | – | – |
| variant CD155 IgV-Fc, S42C, S52M, Q62F (Fc fusion) | – | 2080 | 1480 | – | – |
| variant CD155 IgV-Fc, T45Q, S52L, V57L, L104E (Fc fusion) | 2860 | 5940 | 1530 | – | – |
| variant CD155 IgV-Fc, L104E (Fc fusion) | 3140 | 2260 | 1560 | 1800 | fold increase to WT ECD (CD112R (human)): 1.01 fold; fold increase to WT ECD (CD96 (human)): 0.02 fold |
| variant CD155 IgV-Fc, Q62F, L104E, G111R (Fc fusion) | – | 2040 | 1520 | 1700 | – |
| variant CD155 IgV-Fc, Q62Y (Fc fusion) | 2530 | 2620 | 1830 | – | – |
| variant CD155 IgV-Fc, P18L, E37S, Q62M, G80S, A81P, G99Y, S112N (Fc fusion) | – | – | 3340 | – | – |
| variant CD155 IgV-Fc, T45Q, S52R, G111R (Fc fusion) | 4090 | 2080 | 2340 | 1790 | fold increase to WT ECD (CD112R (human)): 1.01 fold; fold increase to WT ECD (CD96 (human)): 0.02 fold |
| variant CD155 IgV-Fc, T45Q, S52Q (Fc fusion) | 4810 | 5790 | 2450 | – | – |
| CD155 variant IgV-Fc P18S, H59N, V75A, L79P, A81T, F91S, L104M, T107M (Fc fusion) | – | – | – | – | MFI at 25 nM (TIGIT (human)): 800 MFI |
| variant CD155 IgV-Fc, L104Q (Fc fusion) | – | 3790 | 1540 | – | – |
| variant CD155 IgV-Fc, S42G, S52L, Q62F, L104Q (Fc fusion) | – | 2160 | 1640 | – | – |
| variant CD80 E35D/D46V/M47L/V68M/L85Q/E88D (Fc fusion) | – | – | – | – | MFI at 33.3 nM (PD-L1 (human)): 137000 MFI |
| variant CD155 IgV-Fc, S42G (Fc fusion) | 4840 | 2450 | 1700 | 1820 | fold increase to WT ECD (CD112R (human)): 1.02 fold; fold increase to WT ECD (CD96 (human)): 0.02 fold |
| variant CD155 IgV-Fc, S42A, L104Q, G111R (Fc fusion) | – | 1900 | 1700 | 1820 | – |
